Biological target: the molecule itself
Assay: FRET or BRET

B1: InlB321 K280C mutant, fluorophore-labeled (T variant) (domain or fragment, Listeria monocytogenes, UniProt P0DQD2 36-321, looked up)
chain: ETITVPTPIKQIFSDDAFAETIKDNLKKKSVTDAVTQNELNSIDQIIANNSDIKSVQGIQYLPNVTKLFLNGNKLTDIKPLANLKNLGWLFLDENKVKDLSSLKDLKKLKSLSLEHNGISDINGLVHLPQLESLYLGNNKITDITVLSRLTKLDTLSLEDNQISDIVPLAGLTKLQNLYLSKNHISDLRALAGLKNLDVLELFSQEALNKPINHQSNLVVPNTVKNTDGSLVTPEIISDDGDYECPNVKWHLPEFTNEVSFIFYQPVTIGKAKARFHGRVTQPLKE
modifications: Cy3B (donor) or ATTO 647N (acceptor) attached by maleimide chemistry to the single cysteine at position 280
B1: binds.
